Laboratory results: patent US6040149A, “Assay for identifying agents which act on the ceramide-activated protein kinase, kinase suppressor of ras, and methods of using said agents” (priority 1997, dated 2000)

Legend:
KSR = molecular target: T1, KSR (Mus musculus, UniProt Q61097); experiment: KSR autophosphorylation in vitro; type: biochemical, mouse (KSR immunoprecipitated from COS-7 cells); design: Raf-1 peptides as substrate
T1 sequence (Q61097 1-873): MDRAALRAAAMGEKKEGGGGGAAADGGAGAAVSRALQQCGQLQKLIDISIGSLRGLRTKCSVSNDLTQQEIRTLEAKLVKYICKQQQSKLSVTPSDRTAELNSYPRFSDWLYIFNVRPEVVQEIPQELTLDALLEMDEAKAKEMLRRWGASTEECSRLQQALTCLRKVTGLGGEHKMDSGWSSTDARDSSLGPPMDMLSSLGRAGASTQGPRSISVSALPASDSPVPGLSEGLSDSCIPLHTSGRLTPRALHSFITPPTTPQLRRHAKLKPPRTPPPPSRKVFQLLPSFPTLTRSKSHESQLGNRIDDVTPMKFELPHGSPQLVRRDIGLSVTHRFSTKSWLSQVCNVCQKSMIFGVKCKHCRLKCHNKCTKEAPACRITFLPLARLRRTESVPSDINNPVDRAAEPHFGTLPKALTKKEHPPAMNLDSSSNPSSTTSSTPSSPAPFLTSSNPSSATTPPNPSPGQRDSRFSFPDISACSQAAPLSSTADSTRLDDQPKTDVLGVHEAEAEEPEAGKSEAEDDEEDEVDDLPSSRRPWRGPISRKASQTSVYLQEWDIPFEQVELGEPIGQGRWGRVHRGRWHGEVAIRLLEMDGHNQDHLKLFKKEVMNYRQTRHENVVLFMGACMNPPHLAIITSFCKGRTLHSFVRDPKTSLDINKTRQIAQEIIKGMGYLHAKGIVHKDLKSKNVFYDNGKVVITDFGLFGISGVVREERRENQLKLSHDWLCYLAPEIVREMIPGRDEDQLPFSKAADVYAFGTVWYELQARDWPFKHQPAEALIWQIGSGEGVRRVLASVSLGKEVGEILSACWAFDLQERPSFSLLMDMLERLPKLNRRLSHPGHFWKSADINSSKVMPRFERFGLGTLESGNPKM
Procedure: Phosphorylated KSR was resolved and detected as in FIG. 2A.
KSR was immunoprecipitated as above from 0.8 mg NP-40 lysate protein with 40 μl agarose-conjugated anti-Flag antibody at 4° C. for 4 hrs or overnight. […] The reaction was stopped by addition of Laemmli sample buffer. Samples were resolved by 7.5% sodium dodecyl sulfate-polyacrylamide gel electrophoresis (SDS-PAGE) and autoradiographed.

[1] = tested on: ceramide-activated protein kinase; conditions: treatment of intact cells; literature; cited from earlier work
[2] = tested on: ceramide-activated protein kinase; experiment: EGFR peptide phosphorylation in a cell-free system (HL-60 nuclei-free supernate); type: biochemical, human (HL-60 cells)
Procedure: Effect of TNF-α on ceramide-activated protein kinase activity. HL-60 cells were incubated in serum-free medium and homogenized (as in FIG. 9). […] ATP (750 μM, 4000 dpm pmol^-1), and 75 μl of reaction buffer. […] Phosphorylated peptide was first run on a C18 Sep-Pak cartridge, then resolved by C18 reverse-phase HPLC (Waters, Milford, Mass.), with a linear gradient of acetonitrile. The peptide eluted at 30% acetonitrile, as determined by monitoring Cerenkov radiation in 1-ml fractions. Background activity was subtracted from each point. (A) Kinetics of TNF-α (30 nM)-stimulated EGFR peptide phosphorylation. Values (mean) represent data from four experiments. (B) Concentration dependence of EGFR peptide phosphorylation at 5 minutes of stimulation with TNF-α (0.01 to 30 nM). Values (mean) represent data derived from duplicate points in two experiments. The SEM of the values in (A) was 18% and the mean range of values in (B) was 3%.
Effect of phospholipases on ceramide-activated protein kinase activity. Nuclei-free supernates, prepared as in FIG. 9, were first incubated with TNF-α (3 nM) or added directly to reaction mixtures that contained various phospholipases; sphingomyelinase (SMase) (1×10^-3 U ml^-1, S. aureus), phospholipase A2 (PlA2) (3.8×10^-2 and 3.8×10^-1 U ml^-1, Vipera ruselli), phospholipase C (PLC) (3.8×10^-2 U ml^-1, Bacillus cereus) and phospholipase D (PLD) (3.8×10^-2 U ml^-1, Streptomyces chromocuscus). Peptide phosphorylation was measured as in FIG. 10. Control value represents peptide phosphorylation in the absence of phospholipases or TNF-α. Values (mean±SEM) represent data derived from duplicate samples in three experiments. *P<0.001 compared to control.
The effect of TNF-α on ceramide-activated protein kinase activity was assessed. […] For studies assessing the effect of TNFα in broken cell preparations, nuclei-free supernates were incubated under conditions sufficient for stimulation of neutral sphingomyelinase in a reaction mixture that also contained EGFR peptide and γ-^32 P-labeled ATP. Phosphorylated peptide was resolved by high-performance liquid chromatograph (HPLC) and quantified by Cerenkov counting. Kinase activity was calculated from the specific activity of [γ-^32 P] ATP and incorporation of ^32 P into EGFR peptide. Background activity was subtracted from each point. […] TNF-α stimulation of kinase activity was evident by 1 minute and demonstrable for at least 10 minutes. If the initial incubation with TNF-α at 4° C. was omitted and TNF was added directly to the reaction mixture at 22° C., the reaction was delayed. […] TNF-α enhanced kinase activity in a concentration-dependent manner at 5 minutes (FIG. 10B). […] This is similar to the ED50 of 200 pM for stimulation of ceramide-activated protein kinase by TNF-α in intact cells. TNF-α enhanced kinase activity in a total of 20 separate studies.
Control activity reflects several TNF-α-independent protein kinases that are known to phosphorylate EGFR peptide on Thr^669.

Compound | effect on activation of KSR (KSR) | enhancement of CAP kinase autophosphorylation / activity [1] | concentration of maximal effect (kinase activity) ([2]; 5 minutes) [nM] | effective concentration (kinase activity) ([2]; 5 minutes) [pM] | ED50 for kinase activity ([2]; 5 minutes, cell-free) | onset of stimulation of kinase activity ([2]; TNF-α 30 nM, P<0.001) [min]
CCCCCCCCCCCCCC(=O)O[C@@H]1[C@@H](C)[C@@]2(O)[C@@H](C=C(CO)C[C@]3(O)C(=O)C(C)=C[C@@H]23)[C@@H]2C(C)(C)[C@]12OC(C)=O [TPA, 12-0-tetradecanoylphorbol-13-acetate] | no effect |  |  |  |  | 
TNF-α |  | 5-10 fold | 3 | 10 | ≈ 300 pM | ≤ 1
